Legend:
[1] = biological target: T1, yeast β-type DNA polymerase (Saccharomyces cerevisiae, UniProt P25615); experiment: Inhibitor sensitivity of DNA polymerase activity in 12CA5 immunoprecipitates; type: biochemical; conditions: for Polβ Activity (1): experiment 1; for Polβ Activity (2): experiment 2
T1 construct: made in house; host or cells: Saccharomyces cerevisiae BJ5459 carrying pGAL18HAβ, galactose induced; 12CA5 immunoprecipitate on protein A beads

[2] = test system: DNA polymerases α, δ and ε; conditions: cited from earlier work
[3] = test system: activated DNA or poly dA-oligo dT primer-template; experiment: DNA polymerase activity in 12CA5 immunoprecipitates; type: biochemical; conditions: for Polβ Activity (1): experiment 1; for Polβ Activity (2): experiment 2
[4] = test system: dA-dT and rA-dT primer-templates; experiment: rNTP incorporation and reverse transcriptase activities of immunoprecipitated polymerase; type: biochemical
[5] = test system: poly dT labeled at the 3'-end with terminal transferase; experiment: 3' exonuclease activity; type: biochemical; conditions: data not shown
[6] = primer-template DNA, Aphidicolin (30 μg/ml), compare dCTP (10 mM) control
[7] = dA-dT (20:1), dTTP (10 mM)/ddTTP (10 mM)

Question: Which results are given for C[C@@]1(CO)[C@H](O)CC[C@@]2(C)[C@H]1CC[C@H]1C[C@@H]3C[C@@]12CC[C@]3(O)CO [Aphidicolin, aphidicolin]?
Answer: sensitivity of yeast β-type DNA polymerase to aphidicolin ([1]; 30 μg/ml): resistant; Polβ Activity (1) [1, 6]: 162; Polβ Activity (2) [1, 6]: 78; inhibition of DNA polymerases α, δ and ε ([2]; aphidicolin 30 μg/ml): completely inhibits

Question: What does the source list for CCN1C(=O)C=CC1=O [NEM, N-ethylmaleimide]?
Answer: sensitivity of yeast β-type DNA polymerase to N-ethylmaleimide ([1]; 10 mM): sensitive; Polβ Activity (1) ([1]; primer-template DNA, NEM (10 mM)): 8

Question: Which results are given for Cc1cn([C@H]2CC[C@@H](COP(=O)(O)OP(=O)(O)OP(=O)(O)O)O2)c(=O)[nH]c1=O [ddTTP, dideoxythymidine triphosphate]?
Answer: Polβ Activity (1) [1, 7]: 11; Polβ Activity (2) [1, 7]: 6; effect of ddTTP on yeast β-type DNA polymerase ([1]; levels used in Table 2): inhibited; inhibition of DNA polymerase α, δ and ε ([2]; ddTTP at the levels used here): does not inhibit

B1: HA polβ: β-type DNA polymerase from S. cerevisiae (POL4, SEQ ID NO:2) tagged at NH2 terminus with influenza hemagglutinin epitope (protein)
chain: MSLKGKFFAFLPNPNTSSNKFFKSILEKKGATIVSSIQNCLQSSRKEVIILIEDSFVDSDMHLTQKDIFQREAGLNDVDEFLGKIEQSGIQCVKTSCITKWVQNDKFAFQKDDLIKFQPSIIVISDNADDGQSSTDKESEISTDVESERNDDSNNKDMIQASKPLKRLLQEDKGRASLVTDKTKYKNNELIIGALKRLTKKYEIEGEKFRARSYRLAKQSMENCDFNVRSGEEAHTKLRNIGPSIAKKIQVILDTGVLPGLNDSVGLEDKLKYFKNCYGIGSEIAKRWNLLNFESFCVAAKKDPEEFVSDWTILFGWSYYDDWLCKMSRNECFTHLKKVQKALRGIDPECQVELQGSYNRGYSKCGDIDLLFFKPFCNDTTELAKIMETLCIKLYKDGYIHCFLQLTPNLEKLFLKRIVERFRTAKIVGYGERKRWYSSEIIKKFFMGVKFSPRELEELKEMKNDEGTLLIEEEEEEETKLNPIDQYMSLNAKDGNYCRRLDFFCCKWDELGAGRIHYTGSKEYNRWIRILAAQKGFKLTQHGLFRNNILLESFNERRIFELLNLKYAEPEHRNIEWEKKTA
modifications: N-terminal HA epitope tag
Question: With B1 as the molecule, how does the “DNA polymerase activity relative to controls” value [3] read?
Answer: 10 fold

Question: And the “synthesis on the poly dA template alone (primer requirement)” value [3]?
Answer: No synthesis was observed

Question: What about the “Polβ Activity (1)” value ([3]; […], Complete) of the same molecule?
Answer: 101

Question: And the “Polβ Activity (1)” value ([3]; […], dCTP (10 mM))?
Answer: 212

Question: And the “Polβ Activity (2)” value ([3]; […], dCTP (10 mM))?
Answer: 106

Question: And the “Polβ Activity (1)” value ([3]; dA-dT (10:1), Complete)?
Answer: 105

Question: What about the “Polβ Activity (2)” value ([3]; dA-dT (10:1), Complete) of the same molecule?
Answer: 244

Question: What about the “Polβ Activity (1)” value ([3]; dA-dT (20:1), Complete) of the same molecule?
Answer: 293

Question: What about the “Polβ Activity (2)” value ([3]; dA-dT (20:1), Complete) of the same molecule?
Answer: 411

Question: What about the “Polβ Activity (1)” value ([3]; dA-dT (20:1), dTTP (10 mM)) of the same molecule?
Answer: 95

Question: And the “Polβ Activity (2)” value ([3]; dA-dT (20:1), dTTP (10 mM))?
Answer: 102

Question: What about the processivity [4] of the same molecule?
Answer: processivity is low

Question: What about the Activity ([4]; dA-dT, 3H NTP T, Mg, Experiment 1) of the same molecule?
Answer: 480 pmol

Question: What about the Activity ([4]; dA-dT, 3H NTP T, Mn, Experiment 1) of the same molecule?
Answer: 769 pmol

Question: What about the Activity ([4]; dA-dT, 3H NTP U, Mg, Experiment 1) of the same molecule?
Answer: 110 pmol

Question: What about the Activity ([4]; dA-dT, 3H NTP U, Mg, Experiment 2) of the same molecule?
Answer: 187 pmol

Question: And the Activity ([4]; dA-dT, 3H NTP U, Mn, Experiment 1)?
Answer: 202 pmol

Question: And the Activity ([4]; dA-dT, 3H NTP U, Mn, Experiment 2)?
Answer: 209 pmol

Question: What about the reverse transcriptase activity ([4]; in the presence of either Mg++ or Mn++) of the same molecule?
Answer: significant reverse transcriptase activity

Question: And the Activity ([4]; rA-dT, 3H NTP T, Mg, Experiment 1)?
Answer: 65 pmol

Question: And the Activity ([4]; rA-dT, 3H NTP T, Mg, Experiment 2)?
Answer: 81 pmol

Question: What about the Activity ([4]; rA-dT, 3H NTP T, Mn, Experiment 1) of the same molecule?
Answer: 191 pmol

Question: And the Activity ([4]; rA-dT, 3H NTP T, Mn, Experiment 2)?
Answer: 59 pmol

Question: What about the Activity ([4]; rA-dT, 3H NTP U, Mg, Experiment 2) of the same molecule?
Answer: 32 pmol

Question: And the Activity ([4]; rA-dT, 3H NTP U, Mn, Experiment 2)?
Answer: 55 pmol

Question: And the “3' exonuclease activity” value [5]?
Answer: no 3' exonuclease activity

Reference: patent US6255062A, “β-type DNA polymerases” (priority 1994, dated 2001)
